The test deals with T1, MBP-AtWRKY20 fusion protein (Arabidopsis thaliana, UniProt Q93WV0 1-557).
T1 sequence (looked up): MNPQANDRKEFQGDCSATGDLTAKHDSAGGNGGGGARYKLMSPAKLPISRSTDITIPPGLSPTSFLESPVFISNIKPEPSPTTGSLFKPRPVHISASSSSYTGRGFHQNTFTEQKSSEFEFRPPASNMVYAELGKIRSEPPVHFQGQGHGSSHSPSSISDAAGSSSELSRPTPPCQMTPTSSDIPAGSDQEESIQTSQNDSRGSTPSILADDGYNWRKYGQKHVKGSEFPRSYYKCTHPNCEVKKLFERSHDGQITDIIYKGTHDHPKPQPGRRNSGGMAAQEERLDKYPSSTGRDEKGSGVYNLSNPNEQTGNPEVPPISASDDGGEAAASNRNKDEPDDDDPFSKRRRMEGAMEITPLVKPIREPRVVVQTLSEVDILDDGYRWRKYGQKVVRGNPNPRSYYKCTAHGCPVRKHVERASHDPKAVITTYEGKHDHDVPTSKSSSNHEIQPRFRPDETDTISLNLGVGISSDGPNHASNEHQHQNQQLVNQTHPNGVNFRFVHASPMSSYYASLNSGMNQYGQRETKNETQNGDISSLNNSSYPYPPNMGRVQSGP
The test is described as follows: pull-down.

B1: GST-AtORA59 (natural protein)
chain: not shown
As to B1, the binding result is on record as “binds”.

Values taken from PMC6703867 (Science Advances, 2019).
